Laboratory results published in article PMC7539298.

Columns and labels:
[1] = target: Nterm5 (UniProt position 676, …); experiment: potentiometry; conditions: 25 °C; 0.1 M (KNO3); none; 1.0 mM peptide in 4 mM HNO3/96 mM KNO3, under argon; apo peptide (no metal)
[2] = target: His6 (UniProt position 677, …); experiment: potentiometry; conditions: 25 °C; 0.1 M (KNO3); none; 1.0 mM peptide in 4 mM HNO3/96 mM KNO3, under argon; apo peptide (no metal)
[3] = target: Asp7 (UniProt position 678, …); experiment: potentiometry; conditions: 25 °C, 0.1 M (KNO3), none, 1.0 mM peptide in 4 mM HNO3/96 mM KNO3, under argon
[4] = target: Tyr10 (UniProt position 681, …); experiment: other (circular dichroism); conditions: 25 °C; none stated; titrated with concentrated NaOH; Cu(II)-bound: 0.9 mM Cu(II), 1.0 mM peptide
[5] = target: Glu11 (UniProt position 682, …); experiment: potentiometry; conditions: 25 °C, 0.1 M (KNO3), none, 1.0 mM peptide in 4 mM HNO3/96 mM KNO3, under argon
[6] = target: Tyr10 (UniProt position 681, …); experiment: potentiometry; conditions: 25 °C; 0.1 M (KNO3); none; 1.0 mM peptide in 4 mM HNO3/96 mM KNO3, under argon; apo peptide (no metal)
[7] = target: Tyr10 (UniProt position 681, …); experiment: UV-vis; conditions: 25 °C; none stated; titrated with concentrated NaOH; Cu(II)-bound: 0.9 mM Cu(II), 1.0 mM peptide
[8] = Cu(II)-bound, mononuclear 3N complex (Arg5 N-terminal amine, Arg5-His6 amide N-, His6 imidazole, equatorial H2O), peptide:metal ratios 1:2, 1:1 and 1:0.5

Question: Which pKa [1] does the source give for RHDSG [Amyloid-beta peptide fragment 5-9 (Abeta5-9) (Homo sapiens)] here?
Answer: The pKa was 7.37.

Question: What about the pKa [2] of the same protein?
Answer: Its pKa is 6.13.

Question: And the pKa [3, 8]?
Answer: Its pKa is 3.82.

Question: What about the pKa ([3]; apo peptide (no metal)) of the same protein?
Answer: The pKa was 3.17.

Question: For RHDSGYEV [Amyloid-beta peptide fragment 5-12 (Abeta5-12) (Homo sapiens)], which pKa [4] is on record?
Answer: The pKa was 8.89(3).

Question: What about the pKa [5, 8] of the same protein?
Answer: The pKa was 4.69.

Question: What about the pKa ([5]; apo peptide (no metal)) of the same protein?
Answer: The pKa was 4.37.

Question: What about the pKa [1] of the same protein?
Answer: The pKa was 7.52.

Question: What about the pKa [6] of the same protein?
Answer: The pKa was 10.08.

Question: And the pKa [2]?
Answer: The pKa was 6.25.

Question: And the pKa [3, 8]?
Answer: Its pKa is 3.23.

Question: What about the pKa ([3]; apo peptide (no metal)) of the same protein?
Answer: Its pKa is 2.73.

Question: And the pKa [7]?
Answer: The pKa was 8.95(7).

Question: RHDSGYEVHHQK [Amyloid-beta peptide fragment 5-16 (Abeta5-16) (Homo sapiens)] was tested. Which pKa [5, 8] did it give?
Answer: Its pKa is 4.169.

Question: What about the pKa ([5]; apo peptide (no metal)) of the same protein?
Answer: Its pKa is 3.92.

Question: What about the pKa [1] of the same protein?
Answer: The pKa was 7.60.

Question: And the pKa [3, 8]?
Answer: The pKa was 3.212.

Question: And the pKa ([3]; apo peptide (no metal))?
Answer: Its pKa is 2.48.
